According to the supplement of paper PMC5998384:

Assays:
HeLa Kyoto [1] = assay: melting temperature (median over replicates), in situ; higher = more thermally stable
HeLa Kyoto [2] = assay: thermal stability score vs G1/S (z-score of summed log2 fold changes over temperatures); higher = more thermally stable than in G1/S
HeLa Kyoto [3] = assay: solubility change mitosis vs G1/S (difference of NP-40 vs SDS log2 ratios) (log2 ratio difference); higher = more soluble in mitosis
HeLa Kyoto [4] = assay: solubility in G1/S (NP-40 vs SDS abundance) (log2 ratio); higher = more soluble; conditions: cell cycle stage: G1/S
[5] = cell cycle stage: early G1 (4.5 h after nocodazole release)
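Throughout, for melting temperature (median over replicates), in situ: HeLa Kyoto cells synchronized by double thymidine or nocodazole block, proteins quantified by TMT10plex mass spectrometry, three independent biological replicates.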
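Throughout, for solubility change mitosis vs G1/S (difference of NP-40 vs SDS log2 ratios): synchronized HeLa Kyoto cells (double thymidine block for G1/S, nocodazole release for mitosis), protein amounts in NP-40 versus SDS lysates quantified by mass spectrometry, three biological replicates.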
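Throughout, for solubility in G1/S (NP-40 vs SDS abundance): HeLa Kyoto cells arrested at G1/S by double thymidine block, proteins quantified by TMT10plex mass spectrometry in mild NP-40 versus SDS extracts, three biological replicates.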
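Throughout, for thermal stability score vs G1/S (z-score of summed log2 fold changes over temperatures): synchronized HeLa Kyoto cells, proteins quantified by TMT10plex mass spectrometry, three biological replicates, mitosis taken 0.5 h after nocodazole release, G1/S directly after double thymidine block.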

Sequence | melting temperature (HeLa Kyoto [1]; cell cycle stage: G1/S) [°C] | melting temperature (HeLa Kyoto [1]; cell cycle stage: mitosis) [°C] | thermal stability score (HeLa Kyoto [2]; [5]) | thermal stability score (HeLa Kyoto [2]; cell cycle stage: mitosis) | solubility change mitosis (log2) (HeLa Kyoto [3]) | solubility in G1/S (log2) (HeLa Kyoto [4])
MSFIPVAEDSDFPIHNLPYGVFSTRGDPRPRIGVAIGDQILDLSIIKHLFTGPVLSKHQDVFNQPTLNSFMGLGQAAWKEARVFLQNLLSVSQARLRDDTELRKCAFISQASATMHLPATIGDYTDFYSSRQHATNVGIMFRDKENALMPNWLHLPVGYHGRASSVVVSGTPIRRPMGQMKPDDSKPPVYGACKLLDMELEMAFFVGPGNRLGEPIPISKAHEHIFGMVLMNDWSARDIQKWEYVPLGPFLGKSFGTTVSPWVVPMDALMPFAVPNPKQDPRPLPYLCHDEPYTFDINLSVNLKGEGMSQAATICKSNFKYMYWTMLQQLTHHSVNGCNLRPGDLLASGTISGPEPENFGSMLELSWKGTKPIDLGNGQTRKFLLDGDEVIITGYCQGDGYRIGFGQCAGKVLPALLPS [FAH] | 58.7 | 59 | -0.791 | -0.764 | -0.0884 | 0.207
MSFVAGVIRRLDETVVNRIAAGEVIQRPANAIKEMIENCLDAKSTSIQVIVKEGGLKLIQIQDNGTGIRKEDLDIVCERFTTSKLQSFEDLASISTYGFRGEALASISHVAHVTITTKTADGKCAYRASYSDGKLKAPPKPCAGNQGTQITVEDLFYNIATRRKALKNPSEEYGKILEVVGRYSVHNAGISFSVKKQGETVADVRTLPNASTVDNIRSIFGNAVSRELIEIGCEDKTLAFKMNGYISNANYSVKKCIFLLFINHRLVESTSLRKAIETVYAAYLPKNTHPFLYLSLEISPQNVDVNVHPTKHEVHFLHEESILERVQQHIESKLLGSNSSRMYFTQTLLPGLAGPSGEMVKSTTSLTSSSTSGSSDKVYAHQMVRTDSREQKLDAFLQPLSKPLSSQPQAIVTEDKTDISSGRARQQDEEMLELPAPAEVAAKNQSLEGDTTKGTSEMSEKRGPTSSNPRKRHREDSDVEMVEDDSRKEMTAACTPRRRIINLTSVLSLQEEINEQGHEVLREMLHNHSFVGCVNPQWALAQHQTKLYLLNTTKLSEELFYQILIYDFANFGVLRLSEPAPLFDLAMLALDSPESGWTEEDGPKEGLAEYIVEFLKKKAEMLADYFSLEIDEEGNLIGLPLLIDNYVPPLEGLPIFILRLATEVNWDEEKECFESLSKECAMFYSIRKQYISEESTLSGQQSEVPGSIPNSWKWTVEHIVYKALRSHILPPKHFTEDGNILQLANLPDLYKVFERC [MLH1] | 46.3 | 48.8 | 3.37 | 5.51 | -0.21 | -0.0862
MSGCGLFLRTTAAARACRGLVVSTANRRLLRTSPPVRAFAKELFLGKIKKKEVFPFPEVSQDELNEINQFLGPVEKFFTEEVDSRKIDQEGKIPDETLEKLKSLGLFGLQVPEEYGGLGFSNTMYSRLGEIISMDGSITVTLAAHQAIGLKGIILAGTEEQKAKYLPKLASGEHIAAFCLTEPASGSDAASIRSRATLSEDKKHYILNGSKVWITNGGLANIFTVFAKTEVVDSDGSVKDKITAFIVERDFGGVTNGKPEDKLGIRGSNTCEVHFENTKIPVENILGEVGDGFKVAMNILNSGRFSMGSVVAGLLKRLIEMTAEYACTRKQFNKRLSEFGLIQEKFALMAQKAYVMESMTYLTAGMLDQPGFPDCSIEAAMVKVFSSEAAWQCVSEALQILGGLGYTRDYPYERILRDTRILLIFEGTNEILRMYIALTGLQHAGRILTTRIHELKQAKVSTVMDTVGRRLRDSLGRTVDLGLTGNHGVVHPSLADSANKFEENTYCFGRTVETLLLRFGKTIMEEQLVLKRVANILINLYGMTAVLSRASRSIRIGLRNHDHEVLLANTFCVEAYLQNLFSLSQLDKYAPENLDEQIKKVSQQILEKRAYICAHPLDRTC [ACAD9] | 54.6 | 54.7 | 4.01 | 3.04 | -0.164 | -0.06
MSGDHLHNDSQIEADFRLNDSHKHKDKHKDREHRHKEHKKEKDREKSKHSNSEHKDSEKKHKEKEKTKHKDGSSEKHKDKHKDRDKEKRKEEKVRASGDAKIKKEKENGFSSPPQIKDEPEDDGYFVPPKEDIKPLKRPRDEDDADYKPKKIKTEDTKKEKKRKLEEEEDGKLKKPKNKDKDKKVPEPDNKKKKPKKEEEQKWKWWEEERYPEGIKWKFLEHKGPVFAPPYEPLPENVKFYYDGKVMKLSPKAEEVATFFAKMLDHEYTTKEIFRKNFFKDWRKEMTNEEKNIITNLSKCDFTQMSQYFKAQTEARKQMSKEEKLKIKEENEKLLKEYGFCIMDNHKERIANFKIEPPGLFRGRGNHPKMGMLKRRIMPEDIIINCSKDAKVPSPPPGHKWKEVRHDNKVTWLVSWTENIQGSIKYIMLNPSSRIKGEKDWQKYETARRLKKCVDKIRNQYREDWKSKEMKVRQRAVALYFIDKLALRAGNEKEEGETADTVGCCSLRVEHINLHPELDGQEYVVEFDFLGKDSIRYYNKVPVEKRVFKNLQLFMENKQPEDDLFDRLNTGILNKHLQDLMEGLTAKVFRTYNASITLQQQLKELTAPDENIPAKILSYNRANRAVAILCNHQRAPPKTFEKSMMNLQTKIDAKKEQLADARRDLKSAKADAKVMKDAKTKKVVESKKKAVQRLEEQLMKLEVQATDREENKQIALGTSKLNYLDPRITVAWCKKWGVPIEKIYNKTQREKFAWAIDMADEDYEF [TOP1] | 46.9 | 49.1 | 7.82 | 12 | 0.531 | -1.22
MSGFLEELLGEKLVTGGGEEVDVHSLGARGISLLGLYFGCSLSAPCAQLSASLAAFYGRLRGDAAAGPGPGAGAGAAAEPEPRRRLEIVFVSSDQDQRQWQDFVRDMPWLALPYKEKHRKLKLWNKYRISNIPSLIFLDATTGKVVCRNGLLVIRDDPEGLEFPWGPKPFREVIAGPLLRNNGQSLESSSLEGSHVGVYFSAHWCPPCRSLTRVLVESYRKIKEAGQNFEIIFVSADRSEESFKQYFSEMPWLAVPYTDEARRSRLNRLYGIQGIPTLIMLDPQGEVITRQGRVEVLNDEDCREFPWHPKPVLELSDSNAAQLNEGPCLVLFVDSEDDGESEAAKQLIQPIAEKIIAKYKAKEEEAPLLFFVAGEDDMTDSLRDYTNLPEAAPLLTILDMSARAKYVMDVEEITPAIVEAFVNDFLAEKLKPEPI [NXN] | 51 | 51 | 1.06 | 1.73 | -0.204 | 0.175
MSGGGPSGGGPGGSGRARTSSFAEPGGGGGGGGGGPGGSASGPGGTGGGKASVGAMGGGVGASSSGGGPGGSGGGGSGGPGAGTSFPPPGVKLGRDSGKVTTVVATLGQGPERSQEVAYTDIKVIGNGSFGVVYQARLAETRELVAIKKVLQDKRFKNRELQIMRKLDHCNIVRLRYFFYSSGEKKDELYLNLVLEYVPETVYRVARHFTKAKLTIPILYVKVYMYQLFRSLAYIHSQGVCHRDIKPQNLLVDPDTAVLKLCDFGSAKQLVRGEPNVSYICSRYYRAPELIFGATDYTSSIDVWSAGCVLAELLLGQPIFPGDSGVDQLVEIIKVLGTPTREQIREMNPNYTEFKFPQIKAHPWTKVFKSRTPPEAIALCSSLLEYTPSSRLSPLEACAHSFFDELRCLGTQLPNNRPLPPLFNFSAGELSIQPSLNAILIPPHLRSPAGTTTLTPSSQALTETPTSSDWQSTDATPTLTNSS [GSK3A] | 52.3 | 52.7 | -1 | -0.972 | -0.0272 | 0.181
MSGLRVYSTSVTGSREIKSQQSEVTRILDGKRIQYQLVDISQDNALRDEMRALAGNPKATPPQIVNGDQYCGDYELFVEAVEQNTLQEFLKLA [SH3BGRL3] | 54.2 | 52.6 | -2.26 | -3.11 | -0.132 | -0.259
MSGLVLGQRDEPAGHRLSQEEILGSTRLVSQGLEALRSEHQAVLQSLSQTIECLQQGGHEEGLVHEKARQLRRSMENIELGLSEAQVMLALASHLSTVESEKQKLRAQVRRLCQENQWLRDELAGTQQRLQRSEQAVAQLEEEKKHLEFLGQLRQYDEDGHTSEEKEGDATKDSLDDLFPNEEEEDPSNGLSRGQGATAAQQGGYEIPARLRTLHNLVIQYAAQGRYEVAVPLCKQALEDLERTSGRGHPDVATMLNILALVYRDQNKYKEAAHLLNDALSIRESTLGPDHPAVAATLNNLAVLYGKRGKYKEAEPLCQRALEIREKVLGTNHPDVAKQLNNLALLCQNQGKYEAVERYYQRALAIYEGQLGPDNPNVARTKNNLASCYLKQGKYAEAETLYKEILTRAHVQEFGSVDDDHKPIWMHAEEREEMSKSRHHEGGTPYAEYGGWYKACKVSSPTVNTTLRNLGALYRRQGKLEAAETLEECALRSRRQGTDPISQTKVAELLGESDGRRTSQEGPGDSVKFEGGEDASVAVEWSGDGSGTLQRSGSLGKIRDVLRRSSELLVRKLQGTEPRPSSSNMKRAASLNYLNQPSAAPLQVSRGLSASTMDLSSSS [KLC4] | 49.8 | 51.3 | 0.719 | 1.19 | -0.12 | 0.299
MSGPVPSRARVYTDVNTHRPREYWDYESHVVEWGNQDDYQLVRKLGRGKYSEVFEAINITNNEKVVVKILKPVKKKKIKREIKILENLRGGPNIITLADIVKDPVSRTPALVFEHVNNTDFKQLYQTLTDYDIRFYMYEILKALDYCHSMGIMHRDVKPHNVMIDHEHRKLRLIDWGLAEFYHPGQEYNVRVASRYFKGPELLVDYQMYDYSLDMWSLGCMLASMIFRKEPFFHGHDNYDQLVRIAKVLGTEDLYDYIDKYNIELDPRFNDILGRHSRKRWERFVHSENQHLVSPEALDFLDKLLRYDHQSRLTAREAMEHPYFYTVVKDQARMGSSSMPGGSTPVSSANMMSGISSVPTPSPLGPLAGSPVIAAANPLGMPVPAAAGAQQ [CSNK2A1] | 51.5 | 50.7 | 1.11 | 1.31 | 0.0535 | -0.00675
MSGRGAGGFPLPPLSPGGGAVAAALGAPPPPAGPGMLPGPALRGPGPAGGVGGPGAAAFRPMGPAGPAAQYQRPGMSPGNRMPMAGLQVGPPAGSPFGAAAPLRPGMPPTMMDPFRKRLLVPQAQPPMPAQRRGLKRRKMADKVLPQRIRELVPESQAYMDLLAFERKLDQTIARKRMEIQEAIKKPLTQKRKLRIYISNTFSPSKAEGDSAGTAGTPGGTPAGDKVASWELRVEGKLLDDPSKQKRKFSSFFKSLVIELDKELYGPDNHLVEWHRMPTTQETDGFQVKRPGDLNVKCTLLLMLDHQPPQYKLDPRLARLLGVHTQTRAAIMQALWLYIKHNQLQDGHEREYINCNRYFRQIFSCGRLRFSEIPMKLAGLLQHPDPIVINHVISVDPNDQKKTACYDIDVEVDDPLKAQMSNFLASTTNQQEIASLDVKIHETIESINQLKTQRDFMLSFSTDPQDFIQEWLRSQRRDLKIITDVIGNPEEERRAAFYHQPWAQEAVGRHIFAKVQQRRQELEQVLGIRLT [SMARCD2] | 48 | 49.2 | 0.352 | 1.15 | 0.00253 | 0.445
